B1: Ring1B(2-116), as it stands in the crystal (domain or fragment)
chain: SQAVQTNGTQPLSKTWELSLYELQRTPQEAITDGLEIVVSPRSLHSELMCPICLDMLKNTMTTKECLHRFCADCIITALRSGNKECPTCRKKLVSKRSLRPDPNFDALISKIYPS
B2: Bmi1(2-109), as it stands in the crystal (domain or fragment)
chain: HRTTRIKITELNPHLMCVLCGGYFIDATTIIECLHSFCKTCIVRYLETSKYCPICDVQVHKTRPLLNIRSDKTLQDIVYKLVPGLFKNEMKRRRDFYAAHPSADAANG

Common to all, as to test: crystal structure
For test [1], the target named is histone H2B, Xenopus, in the nucleosome core particle (Xenopus, UniProt P02281 5-126).
Test [2] addresses B1.
In test [3] the target is histone H4, Xenopus, in the nucleosome core particle (Xenopus, UniProt P62799 2-103).

For B1, the binding result in test [1] was “binds”.

Turning to B2, the binding result in test [2], in test [1] and in test [3] was “binds” in each case.
